As a reminder, the EC50 is the concentration at which the effect is half-maximal.

These results are taken from patent US20190085043A1, “FUSION PROTEINS FOR TREATING A METABOLIC SYNDROME” (SANOFI, priority 2012, published 2019).

The target in one experiment is T1, human GLP-1 receptor (Homo sapiens, UniProt P43220).
T1 construct: expressed in transfected cells
Put plainly: In vitro cellular assay for human GLP-1 receptor efficacy (cAMP HTRF, HEK-293). The format is cell-based. The conditions noted are these: HEK-293 cells stably expressing human GLP-1 receptor, read-out: hGLP-1R cAMP EC50. As for the experimental part:
The cAMP content of the cells was determined using a kit from Cisbio Corp. (cat. no. 62AM4PEC) based on HTRF (Homogenous Time Resolved Fluorescence).
The cAMP content of cells was determined using a kit from Cisbio Corp. (cat. no. 62AM4PEC) based on HTRF (Homogenous Time Resolved Fluorescence). For preparation, cells were split into T175 culture flasks and grown overnight to near confluence in medium (DMEM/10% FBS). Medium was then removed and cells washed with PBS lacking calcium and magnesium, followed by proteinase treatment with accutase (Sigma-Aldrich cat. no. A6964). Detached cells were washed and resuspended in assay buffer (1×HBSS; 20 mM HEPES, 0.1% BSA, 2 mM IBMX) and cellular density determined. They were then diluted to 4×10^5cells/mL and 25 μL-aliquots dispensed into the wells of 96-well plates. For measurement, 25 μL of test compound in assay buffer was added to the wells, followed by incubation for 30 minutes at room temperature.
In general terms: TR-FRET usually uses a lanthanide donor and a delayed reading to cut background.

The next experiment relates to MAP kinase ERK1/2. Put plainly: ERK1/2 phosphorylation In-Cell Western (pERK ICW) in CHO cells overexpressing human FGFR1c plus KLB. The format is cell-based. Particulars: ERK1/2 phosphorylation Thr202/Tyr204. The method, then: FIG. 1C-1 to FIG. 1C-3) Dose dependent in vitro activation of the downstream effector ERK. Activation of the downstream effector of FGF signaling, the MAP kinase ERK1/2, was determined via In-Cell Western assay in CHO cells stably overexpressing human FGFR1c and KLB using an antibody directed against the ERK1/2 phosphorylated amino acid residues threonine 202 and tyrosine 204.
(§1) CHO Flp-In cells (Invitrogen, Darmstadt, Germany) stable expressing the human FGFR1c together with human beta-Klotho (KLB) were used for FGF-21 receptor autophosphorylation assay using In-Cell Western. In order to determine the receptor autophosphorylation level, 2×10^4 cells/well were seeded into 96-well plates and grown for 48 h. Cells were serum starved with serum-free medium Ham's F-12 Nutrient Mix with GlutaMAX (Gibco, Darmstadt, Germany) for 3-4 h. The cells were subsequently treated with increasing concentrations of either human FGF-21, the indicated FGF-21 fusion protein, or other peptides for 5 min at 37° C. After incubation the medium was discarded and the cells were fixed in 3.7% freshly prepared para-formaldehyde for 20 min. Cells were permeabilized with 0.1% Triton-X-100 in PBS for 20 min. Blocking was performed with Odyssey blocking buffer (LICOR, Bad Homburg, Germany) for 2 h at room temperature. Anti-pFGFR Tyr653/654 (New England Biolabs, Frankfurt, Germany) was incubated overnight at 4° C. After incubation of the primary antibody, cells were washed with PBS+0.1% Tween20. The secondary anti-Mouse 800CW antibody (LICOR, Bad Homburg, Germany) was incubated for 1 h at room temperature. Subsequently cells were washed again with PBS+0.1% Tween20 and infrared dye signals were quantified with an Odyssey imager (LICOR, Bad Homburg, Germany). Results were normalized by quantification of DNA with TO-PRO3 dye (Invitrogen, Karlsruhe, Germany). FIG. 1B-1 to FIG. 1B-4 show the results from an ICW with CHO cells overexpressing human FGFR1c plus KLB.
To assess the activation of a downstream effector of FGFR signalling by FGF-21-GLP-1RA fusion proteins the phosphorylation of MAP kinases ERK1/2 were analysed. The same ICW protocol as described above was used, simply the primary antibody was replaced by anti-phospho-p44/42 MAPK (Erk1/2) (Thr202/Tyr204) (New England Biolabs, Frankfurt, Germany). FIG. 1C-1 to FIG. 1C-3 show the results from ICW with CHO cells overexpressing human FGFR1c plus KLB and detection of ERK1/2 phosphorylation.

In the next experiment the target is human FGFR1c plus KLB (Homo sapiens, UniProt P11362+Q86Z14). Put plainly: FGF-21 receptor autophosphorylation In-Cell Western (pFGFR ICW) in CHO cells. The format is cell-based. Particulars: CHO cells overexpressing human FGFR1c plus KLB, FGFR autophosphorylation. The method, then:
FIG. 1B-1 to FIG. 1B-4) The FGF induced FGFR autophosphorylation was measured via a specific and highly sensitive In-Cell Western (ICW) in CHO cells stably overexpressing human FGFR1c together with human betaKlotho (KLB). In-Cell Western assay is an immunocytochemical assay usually performed in microplate format. Target-specific primary antibodies and infrared-labelled secondary antibodies are used to detect target proteins in fixed cells, and fluorescent signal from each well is quantified (e.g. the In-Cell Western assay from LI-COR Biosciences, USA).
The cellular efficacy of FGF-21 or FGF-21 fusion proteins was measured using a specific and highly sensitive In-Cell Western (ICW) assay. The ICW assay is an immunocytochemical assay usually performed in microplate format.
as §1

For the next experiment, the system named is ob/ob mice. Put plainly: Treatment of ob/ob mice by chronic infusion (Alzet pumps, 11 days). The format is in vivo, mouse. The conditions noted are these: for Relative body weight change (%): after 11 days of treatment. As for the experimental part: Female ob/ob mice (B6.V-LEP OB/J, age of 9 weeks) were obtained from Charles Rivers Laboratories (Sulzfeld, Germany). Mice were randomly assigned to treatment or vehicle groups, and the randomization was stratified by body weight and fed blood glucose levels. The animals were housed in groups of 8 at 23° C. and on a 12 h light-dark cycle. All experimental procedures were conducted according to German Animal Protection Law. Mice were fed ad libitum with standard rodent chow during the drug treatment periods. Body weight and food intake was recorded every other day throughout the study.
Ob/ob mice were treated with vehicle (PBS), 0.03, 0.1, 0.3, and 1.0 mg·kg^−1·day^−1 recombinant Exenatide-IEGR-FGF-21 (SEQ ID NO: 15) via chronic infusion by Alzet pumps (type 1004) over 11 days.
At the end of the study liver weight and liver triglycerides were analysed.
Two days before pump implantation and after 11 days of treatment blood glucose was measured by tail tip bleeding under fed conditions. As shown in FIGS. 10 and 11 blood glucose levels of the chronic infused mice were decreased dose-dependently with highest effect at the dosage of 1.0 mg·kg^−1·day^−1 recombinant fusion protein.

Where [1] appears, read: 0.03, 0.1, 0.3 and 1 mg/kg, end of study.

Chain of human FGFR1c plus KLB (P11362 22-822): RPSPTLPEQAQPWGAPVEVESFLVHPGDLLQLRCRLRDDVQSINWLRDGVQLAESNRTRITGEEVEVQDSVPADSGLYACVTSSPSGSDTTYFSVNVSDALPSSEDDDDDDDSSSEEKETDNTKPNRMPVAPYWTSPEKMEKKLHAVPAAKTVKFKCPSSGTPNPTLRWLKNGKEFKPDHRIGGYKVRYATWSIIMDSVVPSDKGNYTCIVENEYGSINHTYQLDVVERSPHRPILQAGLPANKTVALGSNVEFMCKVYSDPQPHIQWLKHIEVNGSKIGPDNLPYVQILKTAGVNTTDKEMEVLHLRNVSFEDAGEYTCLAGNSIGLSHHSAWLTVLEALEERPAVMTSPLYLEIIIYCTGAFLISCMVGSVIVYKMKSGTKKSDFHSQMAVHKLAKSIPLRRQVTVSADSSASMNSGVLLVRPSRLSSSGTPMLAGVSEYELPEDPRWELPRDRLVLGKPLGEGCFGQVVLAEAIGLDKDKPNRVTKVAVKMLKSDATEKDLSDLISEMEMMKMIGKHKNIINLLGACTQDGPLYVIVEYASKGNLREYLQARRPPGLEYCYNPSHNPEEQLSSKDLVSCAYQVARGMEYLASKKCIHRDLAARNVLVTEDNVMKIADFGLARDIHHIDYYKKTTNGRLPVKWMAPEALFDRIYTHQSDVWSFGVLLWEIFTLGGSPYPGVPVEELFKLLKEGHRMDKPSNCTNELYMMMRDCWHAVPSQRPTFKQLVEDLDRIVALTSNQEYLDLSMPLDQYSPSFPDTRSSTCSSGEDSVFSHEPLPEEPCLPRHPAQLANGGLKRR
Chain of human FGFR1c plus KLB (Q86Z14 whole entry): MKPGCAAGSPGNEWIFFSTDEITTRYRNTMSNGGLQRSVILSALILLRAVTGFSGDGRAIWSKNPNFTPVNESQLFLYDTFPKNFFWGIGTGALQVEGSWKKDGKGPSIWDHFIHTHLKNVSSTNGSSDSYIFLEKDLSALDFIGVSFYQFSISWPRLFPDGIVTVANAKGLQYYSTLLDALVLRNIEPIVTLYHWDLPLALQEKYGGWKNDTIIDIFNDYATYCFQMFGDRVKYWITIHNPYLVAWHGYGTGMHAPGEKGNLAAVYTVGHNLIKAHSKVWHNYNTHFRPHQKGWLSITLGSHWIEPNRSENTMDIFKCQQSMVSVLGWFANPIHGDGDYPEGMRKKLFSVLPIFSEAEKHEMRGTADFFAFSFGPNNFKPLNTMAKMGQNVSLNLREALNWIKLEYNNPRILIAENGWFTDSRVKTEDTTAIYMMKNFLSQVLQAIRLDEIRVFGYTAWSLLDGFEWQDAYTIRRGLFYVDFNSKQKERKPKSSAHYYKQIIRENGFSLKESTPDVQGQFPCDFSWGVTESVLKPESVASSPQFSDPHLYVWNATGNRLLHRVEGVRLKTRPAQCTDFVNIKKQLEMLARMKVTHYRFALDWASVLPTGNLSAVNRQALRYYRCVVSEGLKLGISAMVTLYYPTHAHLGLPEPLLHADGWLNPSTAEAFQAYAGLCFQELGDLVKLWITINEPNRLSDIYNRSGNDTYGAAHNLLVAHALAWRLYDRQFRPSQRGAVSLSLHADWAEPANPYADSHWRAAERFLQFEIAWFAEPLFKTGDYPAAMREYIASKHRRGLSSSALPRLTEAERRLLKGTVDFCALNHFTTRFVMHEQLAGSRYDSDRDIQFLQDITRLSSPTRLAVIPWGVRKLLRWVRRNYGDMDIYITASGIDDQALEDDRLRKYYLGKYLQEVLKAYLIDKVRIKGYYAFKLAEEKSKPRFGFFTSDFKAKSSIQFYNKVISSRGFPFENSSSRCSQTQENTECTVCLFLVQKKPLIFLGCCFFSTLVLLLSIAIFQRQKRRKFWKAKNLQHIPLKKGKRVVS
T1 sequence (P43220 24-463): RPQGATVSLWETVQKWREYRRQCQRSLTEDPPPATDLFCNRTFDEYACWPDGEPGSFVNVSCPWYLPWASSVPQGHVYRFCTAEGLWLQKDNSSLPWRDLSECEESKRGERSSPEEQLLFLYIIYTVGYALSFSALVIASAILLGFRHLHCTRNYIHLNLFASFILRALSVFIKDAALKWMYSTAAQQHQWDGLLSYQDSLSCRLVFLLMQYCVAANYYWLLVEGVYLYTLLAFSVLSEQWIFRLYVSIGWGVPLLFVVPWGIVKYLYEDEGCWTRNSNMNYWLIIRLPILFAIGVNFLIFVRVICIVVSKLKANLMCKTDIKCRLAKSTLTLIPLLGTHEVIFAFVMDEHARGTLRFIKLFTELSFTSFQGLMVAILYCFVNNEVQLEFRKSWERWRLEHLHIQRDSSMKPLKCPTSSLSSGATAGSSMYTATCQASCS

Take “Exenatide-APSCPAS-FGF21: fusion protein, linker based on PAS sequence plus Cystein for potential modification”: the EC50 with human GLP-1 receptor stood at 0.0132 nM; with MAP kinase ERK1/2 it was 10.9 nM; in the experiment with human FGFR1c plus KLB, 193 nM.
As to “Exenatide-APSPAS-FGF21: fusion protein, linker based on PAS sequence”, the EC50 stood at 0.003 nM with human GLP-1 receptor, 0.27 nM in the experiment with MAP kinase ERK1/2 and 4.1 nM with human FGFR1c plus KLB.
Taken in the same sequence, the figures for “Exenatide-FGF21-GG-ABD-GG-FGF21: fusion protein, GG-ABD-GG = linker” were 0.0216 nM, 4.34 nM and 37.3 nM.
Taken in the same sequence, the figures for “Exenatide-FGF21-GG-ABD: fusion protein, GG-ABD = linker (albumin binding domain)” were 0.00796 nM, 89.9 nM and 79.8 nM.
As for “Exenatide-FGF21: fusion protein of exenatide and human FGF-21 His29-Ser209 without linker”, the results for the EC50 with human GLP-1 receptor, in the experiment on MAP kinase ERK1/2 and with human FGFR1c plus KLB were 0.0041 nM, 0.51 nM and 1.3 nM, respectively.
As to “Exenatide-GG-ABD-GG-FGF21: fusion protein, GG-ABD-GG = linker”, the EC50 with human GLP-1 receptor was found to be 0.0159 nM.
Take “Exenatide-GGGGS-His-GGGGS-ABD-GG-FGF21: fusion protein, GGGGS-His-GGGGS-ABD-GG = linker”: the EC50 with human GLP-1 receptor is 0.00254 nM; in the experiment with MAP kinase ERK1/2, 4.97 nM.
As to “Exenatide-GGGRR-FGF21: fusion protein, GGGRR protease cleavage site linker”, the results for the EC50 in the experiment with human GLP-1 receptor, with MAP kinase ERK1/2 and with human FGFR1c plus KLB were 0.0077 nM, 0.98 nM and 7.4 nM, respectively.
For “Exenatide-GSGS-FGF21: fusion protein, GSGS = linker” the same measures were 0.0072 nM, 0.53 nM and 19.1 nM.
“Exenatide-IEGQ-FGF21: fusion protein, IEGQ = linker (mutated/defect Factor Xa cleavage site)”: the EC50 with human GLP-1 receptor amounted to 0.0061 nM; in the experiment with MAP kinase ERK1/2, 0.79 nM; with human FGFR1c plus KLB, 35.4 nM.
For the substance “Exenatide-IEGR-FGF21: fusion protein exenatide - Factor Xa cleavage site IEGR linker - FGF21”, the “Relative body weight change (%)” value in the experiment with ob/ob mice (0.03 mg/kg, chronic infusion) is given as “+6.6%”; in the experiment with ob/ob mice (0.1 mg/kg, chronic infusion), “+1.1%”; in the experiment with ob/ob mice (0.3 mg/kg, chronic infusion) it was −2.6%; with ob/ob mice (1 mg/kg, chronic infusion), −17.8%. Further, the “highest reduction of body weight” value in the experiment with ob/ob mice (1 mg/kg, chronic infusion) was 17.8%. For the same substance, the body weight entry with ob/ob mice (0.03, 0.1, 0.3 and 1 mg/kg, chronic infusion) is reported as “dose dependent decrease”. Moreover, the liver triglycerides entry with ob/ob mice (setting [1]) was “dose dependent decrease”. Further, the total liver weight entry in the experiment on ob/ob mice (setting [1]) is listed as “dose dependent decrease”. Besides, the blood glucose result with ob/ob mice (0.03, 0.1, 0.3 and 1 mg/kg, fed, after 11 days of chronic infusion) is “dose dependent decrease”. Further, the EC50 worked out at 0.004 nM with human GLP-1 receptor, 0.4 nM with MAP kinase ERK1/2 and 1.9 nM with human FGFR1c plus KLB.
In the case of “Lixisenatide-FGF21: fusion protein of lixisenatide and FGF21 without linker”, the results for the 50% effective concentration (EC50) with human GLP-1 receptor, in the experiment with MAP kinase ERK1/2 and with human FGFR1c plus KLB were 0.0037 nM, 0.24 nM and 3.7 nM, respectively.
On to “Lixisenatide-IEGR-FGF21: fusion protein lixisenatide - Factor Xa cleavage site - FGF21”, for which the figures for the EC50 with human GLP-1 receptor, with MAP kinase ERK1/2 and with human FGFR1c plus KLB were 0.0038 nM, 1 nM and 3.1 nM, respectively.
